From US20200230115A1, “METHODS OF TREATING INFLUENZA-ASSOCIATED VIRAL PNEUMONIA” (priority 2017, published 2020)
Where two headings read alike, the source gives them in different places.

What was measured:
cytokines and chemokines = assay: Multiplex analysis of inflammatory mediators in BALF and serum; format: in vivo, DBA/2J mice
IL-6, TNFα, KC, MCP-1 = format: in vivo
AECII [1] = assay: Flow cytometry of dispersed lung cells (pro SP-C, Ki67, IAV-NP) after in vivo treatment; design: species or system DBA/2J mice
AECII [2] = format: cell-based, mice

B1: KGF: keratinocyte growth factor, a potent pulmonary epithelial mitogen; cognate receptor FGFR2 (protein, UniProt P21781 32-194, looked up)
Fibroblast growth factor 7: CNDMTPEQMATNVNCSSPERHTRSYDYMEGGDIRVRRLFCRTQWYLRIDKRGKVKGTQEMKNNYNIMEIRTVAVGIVAIKGVESEFYLAMNKEGKLYAKKECNEDCNFKELILENHYNTYASAKWTHNGGEMFVALNQKGIPVRGKKTKKEQKTAHFLPMAIT
Cytokines and chemokines; BALF, 72 h after IAV with 5 mg/kg KGF i.t.
  BAL IP10, MCP-5, TNFα, MIG, IL-6, MCP-1, G-CSF, M-CSF, IFNγ responses relative to PBS/IAV: modestly augmented
Cytokines and chemokines; serum, IAV with 5 mg/kg KGF i.t.
  serum inflammatory response to IAV (especially IP10, TNFα, MCP-1, IFNγ): augmented the inflammatory response
IL-6, TNFα, KC, MCP-1; KGF treatment alone, 48 and 72 h postchallenge
  TNFα increase, KGF alone vs naive controls: two- to threefold increases
IL-6, TNFα, KC, MCP-1; KGF treatment alone, no IAV, any point
  cytokine responses, KGF alone (other than TNFα): no effect
IL-6, TNFα, KC, MCP-1; whole-lung homogenates, 48 and 72 h, KGF coadministration with IAV
  enhancement of IAV-induced IL-6, TNFα, KC, MCP-1 levels: 10-50%
AECII [1]; 48 h after i.t. KGF 5 mg/kg
  fold increase in percentage of AECII proliferating vs PBS: more than sevenfold
AECII [1]; 48 h after i.t. KGF 5 mg/kg, PBS-only mice 2%
  percentage of AECII proliferating based on Ki67 staining: 14%
AECII [1]; KGF 24, 48 or 120 h before 50,000 particles i.t. IAV, peak
  percentage of AECII infected (IAV-NP), time course: peaked in dispersed lung cells from mice that had been pretreated with KGF 48 h before infection
AECII [1]; KGF 24, 48 or 120 h before IAV, peak
  mean channel fluorescence of IAV-NP (viral burden per cell), time course: peaking in cells harvested at 48 h after KGF
AECII [1]; KGF 120 h before inoculum
  percentage of AECII infected (IAV-NP): remained near PBS control levels
AECII [1]; mouse, in vivo
  mean channel fluorescence of IAV-NP (viral burden per cell): remaining close to PBS control levels
  percentage of AECII infected vs PBS control mice: significantly greater
  percentage of AECII proliferating (Ki67): remaining similar to PBS control levels
  percentage of AECII proliferating (Ki67), time course: peaking in cells isolated from mice that had been dosed with KGF 48 h before PBS challenge
AECII [2]
  MCF per cell for IAV-NP: returning to baseline
  mean fluorescence intensity of IAV-NP staining, Ki67 high vs Ki67 low: greater in the Ki67 high (proliferating) than the Ki67 low (nonproliferating) population
  peak in expression of viral protein M1 (Western blot): occurred in AECII that were isolated 48 h after in vivo KGF challenge
  percentage of AECII infected after ex vivo IAV incubation: remained near baseline levels
  percentage of AECII infected after ex vivo IAV incubation, time course: highest in cells harvested 48 h after in vivo KGF treatment
  percentage of AECII proliferating (Ki67): returned to near baseline
  percentage of AECII proliferating (Ki67), time course: peaked at 48 h
AECII [2]; ex vivo IAV 18 h, peak
  MCF per cell for IAV-NP, time course: peaking in cells harvested at 48 h post KGF
